Reference: the nanobody polyreactivity screen of Harvey et al. (2022)

Assay: yeast display, Sf9 membrane polyspecificity reagent, FACS + sequencing; frameworks hold sequencing errors
Summary of the method: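 A synthetic nanobody library was expressed on Saccharomyces cerevisiae BJ5465 by galactose induction for 36–48 hours. The library was stained for 1 hour at 4 °C with 10% biotinylated, detergent-solubilized Sf9 membrane reagent and enriched with streptavidin microbeads before FACS. Low and high (top ~1%) gates were set on anti-HA fluorescence for expression and streptavidin fluorescence for reagent binding, and each polyreactivity label reflects the gate of origin.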

| Sequence | polyreactivity (PSR sort gate) |
| --- | --- |
| QVQLVESGGGLVQAGGSLRLSCAASGIIFTTNAMGWYRQAPGKERELVATITSGGGTYYADSVKGRFTISRDNAKNTVYLQMNSLKPVDTAVYYCAATPGWGPWIFDHSYVDFDYWGQGTQVTVSS | low polyreactivity |
| QVQLVESGGGLVQAGGSLRLSCAASGIIFTWYAMGWYRQAPGKERELVAAITSGNTYYADSVKGRFTISRDNAKNTVYLQMNSLKPEDTAVYYCNAVYSYTDEYDYWGQGTQVTVSS | high polyreactivity |
| QVQLVESGGGLVQAGGSLRLSCAASGIIFTYNAMGWSRQAPGKERELVAAISWRGGSTYYADSVKGRFTISRDNAKNTVYLQMNSLKPEDTAVYYCARYGTDHRLGYGYWGQGTQVTVSS | low polyreactivity |
| QVQLVESGGGLVQAGGSLRLSCAASGIIFTYNTMGWYRQAPGKERELVAAINYSGGSTYYADSVKGRFTISRDNAKNTVYLQMNSLKPEDTAVYYCAAPYRRKARGFQQSFDYWGQVTQVTVSS | high polyreactivity |
| QVQLVESGGGLVQAGGSLRLSCAASGIIFTYYAMGSYRQAPGKERELVAAISSRGDSTYYADSVKGRCTISRDNAKNTVSLQLNSLKTEDTAVYYCNRYLSRPLRAMYYWGIGTQVTVSS | high polyreactivity |
| QVQLVESGGGLVQAGGSLRLSCAASGIIFTYYAMGWYRQAPGKERELVAAISYRGGSTNYADSVKGRFTISRDNAKNTVYLQMNSLKPEDTAVYYCAAKSYWKRFRVLYDYWGQGTQVTVSS | high polyreactivity |
| QVQLVESGGGLVQAGGSLRLSCAASGIIFTYYAMGWYRQAPGKERELVAAITSSAGSTYYADSVKGRFTISRDNAKNTVYLQMNSLKPVDTAVYYCAAYSVYYYQGDDYWGQGTQVTVSS | high polyreactivity |
| QVQLVESGGGLVQAGGSLRLSCAASGIIFTYYAMGWYRQAPGKERELVADIDWSGDGTYYADSVKGRFTISRDNAKNTVYLQMNSLKPEDTAVYYCAAEGTETYYVFYDQPEITLYDYWGQGTQVTVSS | low polyreactivity |
| QVQLVESGGGLVQAGGSLRLSCAASGIIFVAYARGWYRQAPGKERELVAAITWGGGRTYYADSVKGRFTISRDNAKNTVYLQMNSLKPEDTAVYYCAAVVWYDPRATYVYWGQGTQVTVSS | low polyreactivity |
| QVQLVESGGGLVQAGGSLRLSCAASGIIFVINAMGWYRQAPGKERELVATITGSGTTNYADSVKGRFTISRDNAKNTVYLQMNSLKPEDTAVYYCARDDTEYARTGAYDYWGQGTQVTVSS | low polyreactivity |
| QVQLVESGGGLVQAGGSLRLSCAASGIIFVSYMGWYRQAPGKERELVAAIRWSGGRTYYADAVKGRFTISRDNAKNTVYLQMNSLKPEDTAVYYCNKRVYYSRDVTSRVGRYDFWGQGTQVTVSS | high polyreactivity |
| QVQLVESGGGLVQAGGSLRLSCAASGIIFWAYALGWYRQAPGKERELVAVISRGGSTNYADSVKGPFTISRDNAKNTVYLQMNSLKPEDTAVYYCAARYGWGQGTQVTVSS | high polyreactivity |
| QVQLVESGGGLVQAGGSLRLSCAASGIIFWRHVMGWYRQAPGKERELVATISTRGGNTYYADSVKGRFTISRDNAKNTVYLQMNSVKPEDTAVYYCAAGKNGYTYSRSYSYGYWGQGTQVTVSS | high polyreactivity |
| QVQLVESGGGLVQAGGSLRLSCAASGIIFWRYAMGWYRQAPGKERELVAAIRYRAGSTYYADSVKGRFTISRDNAKNTVYLQLNSLKPEDTAVYYCAAGWWTSPDRRGGDYWGQGTQVTVSS | high polyreactivity |
| QVQLVESGGGLVQAGGSLRLSCAASGIIFWVNAMGWYRQAHGKETELVAAITISGVSTYYADSVKGRFTISRDNAKNTVYLQMNSLKPEDTAVYYCAKDPTFSSSFAVSLGFDSWGQGTQVTVSS | low polyreactivity |
| QVQLVESGGGLVQAGGSLRLSCAASGIIFWWYAMGWYRQAPGKEMELVAAISGTGGSTYYADSVKGRFTISRDNAKNTVYLQMNSLKPEDTAFYYCAARGKSSSYYDYDYWGQGTQVTVSS | low polyreactivity |
| QVQLVESGGGLVQAGGSLRLSCAASGIIFWYYAMGWYRPAPGKERELVAAISSGGGTNYADSVKGRFTISRDNAKNTVYLQMNSLKPEDTAVYYCAVASGPELDYWGQGTQVTVSS | low polyreactivity |
| QVQLVESGGGLVQAGGSLRLSCAASGIIFWYYAMGWYRQAPGIERELVAAISQSGGRTYYADSVKGRFTISRDNAKKTVYLQMNSLKPEDTAVYYCAAEPYTGYGYWGQGTQVTVSS | high polyreactivity |
| QVQLVESGGGLVQAGGSLRLSCAASGIIFWYYAMGWYRQAPGKERELVAAISGSGGRTYYADSVKGRFTISRDNAKNTVYLQMNSLKPEDTAVYYCNALRAAFYHRARELDYWGQGTQVTVSS | high polyreactivity |
| QVQLVESGGGLVQAGGSLRLSCAASGIIFYAYAMGWYRQAPGKERELVARISRGGSTNYADSVKGRFTISRDNAKNTFYLQMNSLKPEDTAVYYCAAYYAYLRYGGLYEYWGQGTQVTVSS | high polyreactivity |
| QVQLVESGGGLVQAGGSLRLSCAASGIIFYDYAMGWYRQAPGKERELVAAIDTGDSTYYADSVKGRFTISRDNAKKTVDLQMNSLKPEDTAVYYCAADYIFYTYIFYWGQGTQVTVSS | high polyreactivity |
| QVQLVESGGGLVQAGGSLRLSCAASGIIFYDYAMGWYRQAPGKERELVAAISRSGGSTYYADSVKGRFTISRDNATNTVYLQMNSLKPEDTAVYYCNADEVVWGYNYWGQGTQVTVSS | low polyreactivity |

| Sequence | polyreactivity (PSR sort gate) |
| --- | --- |
| QVQLVESGGGLVQAGGSLRLSCAASGIIFYDYAMGWYRQAPGKERELVAAITSSGGSTYYADSVKGRFTISRDNAKNTVYLQMNSLKPEDTAVYYCAARTRSYWSTTYYYWGQGTQVTVSS | high polyreactivity |
| QVQLVESGGGLVQAGGSLRLSCAASGIIFYDYVMGWYRQAPGKERELVTAISSNGGSTYYADSVKGRFTISRDNAKNTVYLQMNRLKPEDTAVYYCAAEGKSYPWPWYFDYWGQGTQVTVSS | high polyreactivity |
| QVQLVESGGGLVQAGGSLRLSCAASGIIFYEYAMGWYRQAPGKERELVATITSGGSTNYADSVKGRFTISRDNAKNTVYLQMNSLKPEDTAVYYCNADWWWGYGYWGQGTQVTVSS | low polyreactivity |
| QVQLVESGGGLVQAGGSLRLSCAASGIIFYEYAMGWYRQAPGKERELVAVITSGGTTNYADSVKGRFTISRDNAKNTVYLQMNSLKPEDTAVYYCAADVYWEFSPEYDYWGQGTQVTVSS | low polyreactivity |
| QVQLVESGGGLVQAGGSLRLSCAASGIIFYEYVMGWYRQAPGKERELVAAISRSGGSTYYADSVKGRFTISRDNAKNTVYLQMNSLKPEDTAVYYCAVDAYRYWWTTYVSDFDYWGQGTQVTVSS | high polyreactivity |
| QVQLVESGGGLVQAGGSLRLSCAASGIIFYFYTMGWYRQAPGKERELVAAISSSGGRTFYADSVKGRFTISRDNAKNTVYLQMNSLKPEDTAVYYCAAAHTREYYWGQGTQVTVSS | high polyreactivity |
| QVQLVESGGGLVQAGGSLRLSCAASGIIFYGKAMGWYRQAPGKERELVAAITWSGGSTYYADSVKGRFTISRDNAKNTVYLQMNRLKPEDTAVYYCAALSGAHEHFVEYDYWGQGTQVTVSS | low polyreactivity |
| QVQLVESGGGLVQAGGSLRLSCAASGIIFYGNVMGWYRQAPGKERELVAGINSSGASTYYADSVKGRFTISRDNAKNTVYLQMNSLKPEDTAVYYCAARGPRVRLNSYYAGRYDYWGQGTQVTVSS | low polyreactivity |
| QVQLVESGGGLVQAGGSLRLSCAASGIIFYGYAMGWYRQAPGKERELVAAIRWRGGSTYYADSVKGRFTISRDNAKNTVYLQMNSLKPADTAVYFCAADQTRYTSVFSSTRYDYWGQGTQVTVSS | low polyreactivity |
| QVQLVESGGGLVQAGGSLRLSCAASGIIFYGYVMGWYRQAPGKERELVATITSSGGSTYYADSVKGRFTISRDNAKNTVYLQMNSLKPEDTGVYYCAADYYYGAWVRHDYWGQGTQVTLSS | low polyreactivity |
| QVQLVESGGGLVQAGGSLRLSCAASGIIFYHNAMGWYRQAPGKERELVASITEIGGSTYYADSVKGRFTISRDNAKNTVYLQMNSLKPEDTAVYYCAAGTLTSFSRYDYWGQGTQVTVSS | low polyreactivity |
| QVQLVESGGGLVQAGGSLRLSCAASGIIFYLNAMGWYRLAPGKERELVAAISSSDGTTYYADSVKGRFTISRDNAKNTVYLQMNSLKPEDTAGYYCAAGQDWGYLDYDWVSYLYDYWGQGTQVTVSS | low polyreactivity |
| QVQLVESGGGLVQAGGSLRLSCAASGIIFYLYAMGWYRQAPGKERELVAAITLSGSTTYYADSVKGRFTISRDNAKNTVYLQMNSLKPEDTAVYYCNADTPVRSDYWGQGTQVTVSS | low polyreactivity |
| QVQLVESGGGLVQAGGSLRLSCAASGIIFYLYTKGWYRQAPGKERELVAAITRGGSTYYADSVKGRFTISRDNAKKTVYLQMNSLKPEDTAVYYCAAKHGPGYRRWYDYWGQGTQVTVSS | high polyreactivity |
| QVQLVESGGGLVQAGGSLRLSCAASGIIFYRYAMGWYRQAPGKERELVAAISTRGGSTYYADSVKGRFTISRDNAKYTVYLHMNSLKPEDTAVYYCAAEWLRYLHDYWGQGTQVTVSS | high polyreactivity |
| QVQLVESGGGLVQAGGSLRLSCAASGIIFYRYAMGWYRQAPGKERELVAAITWRGGSPYYADSVKGRFTISRDNAKNTVYLQMNSLKPEDTAVYYCAAESYWTATYTFDYWGQGTQVTVSS | high polyreactivity |
| QVQLVESGGGLVQAGGSLRLSCAASGIIFYVNAMGWYRQAPGKERDLVAAITFGGDSTYYADSVKGRFTISRDNAMNTVSVQMNSLKPEDTAVYYCATDGDPAYPEMEYLGQGTQVTVSS | low polyreactivity |
| QVQLVESGGGLVQAGGSLRLSCAASGIIFYVNAMGWYRQAPGKERELVAVISRRGGSTNYADSVKGRFTISRDNAKNTVYLQMNSLKPEDTAVYYCAAGYRTAYRGSSYYYWGQGTQVTVSS | high polyreactivity |
| QVQLVESGGGLVQAGGSLRLSCAASGIIFYYNALGWYRQAPGKERELVAAIDDRGDSTYYADSVKGRFTISRDNAKNTVYLQMNSLKPEDTAVYYCAADRYVQLLGYFFEYDYWGQGTQVTVSS | low polyreactivity |
| QVQLVESGGGLVQAGGSLRLSCAASGIIFYYYAMGWYRQPPGKERELVAAISWSGDGTYYADSVKGRFTISRDNPKNTVYLQMNSLKPEDTAVYYCAALNDGFSGYDYLDEYTDYGYWGQGTQVTVSS | low polyreactivity |
| QVQLVESGGGLVQAGGSLRLSCAASGIIIGNNAMGWYRQAPGKERELVAPISRRGGSTYYADSVKGRFTISRDNAKNTVYLQMNSLKPEYTAVYYCAADIYRYNSYDYWGQGTQVTVSS | low polyreactivity |
